Data on five molecules can be found in patent US20070037861A1, “Enhanced method of treatment of growth disorders” (PFIZER HEALTH AB, priority 2003, published 2007).

The conditions of data set [1]: animal model; without adverse effects on body weight and adipose tissue mass; cited from earlier work.
The conditions of data set [2]: overnight administration; lean and obese nondiabetic subjects, impaired glucose tolerance or type 2 diabetes; cited from earlier work.
For data set [3] the following is noted: by inhibition of lipolysis; cited from earlier work.
In another data set the target is T1, GH receptors (Rattus norvegicus, UniProt P16310).
T1 construct: host or cells: rat hepatocytes
T1 sequence (P16310 19-638): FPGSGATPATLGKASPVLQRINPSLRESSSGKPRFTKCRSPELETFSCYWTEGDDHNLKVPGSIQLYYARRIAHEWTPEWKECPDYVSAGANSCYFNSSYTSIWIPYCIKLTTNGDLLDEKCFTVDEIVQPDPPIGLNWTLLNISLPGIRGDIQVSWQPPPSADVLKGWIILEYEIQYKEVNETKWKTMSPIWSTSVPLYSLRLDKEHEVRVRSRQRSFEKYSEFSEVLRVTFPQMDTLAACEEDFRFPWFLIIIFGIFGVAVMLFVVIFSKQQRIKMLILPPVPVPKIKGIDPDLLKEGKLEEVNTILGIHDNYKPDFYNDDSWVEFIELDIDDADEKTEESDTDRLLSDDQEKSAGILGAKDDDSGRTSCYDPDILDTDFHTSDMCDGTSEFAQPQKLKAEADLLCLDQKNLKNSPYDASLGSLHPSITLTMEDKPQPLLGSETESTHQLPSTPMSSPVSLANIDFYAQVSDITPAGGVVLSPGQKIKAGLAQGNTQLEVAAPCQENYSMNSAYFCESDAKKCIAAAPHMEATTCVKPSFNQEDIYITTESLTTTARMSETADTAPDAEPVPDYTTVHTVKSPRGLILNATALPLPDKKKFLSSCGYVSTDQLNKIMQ
The following applies: cited from earlier work.

In a further data set the target is T2, rat prolactin receptor (Rattus norvegicus, UniProt P05710).
T2 construct: host or cells: rat hepatocytes
T2 sequence (P05710 20-310 isoform P05710-3 limits assumed): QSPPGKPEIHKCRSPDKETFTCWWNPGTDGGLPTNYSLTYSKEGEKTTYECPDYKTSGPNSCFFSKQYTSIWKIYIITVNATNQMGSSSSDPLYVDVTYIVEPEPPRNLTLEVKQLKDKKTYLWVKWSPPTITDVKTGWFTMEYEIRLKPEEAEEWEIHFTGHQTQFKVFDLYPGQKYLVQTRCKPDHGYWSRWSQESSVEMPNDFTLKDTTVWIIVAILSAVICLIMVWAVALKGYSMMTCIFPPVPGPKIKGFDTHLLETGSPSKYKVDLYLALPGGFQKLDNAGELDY
The settings on record: cited from earlier work.

The nature of data set [4]: Tibial bone length, area and density by pQCT post-mortem. It counts as in vivo, Wistar rats. The following applies: for Fisher's PLSD for TRABECULAR, Mean Diff.: effect: treatment, significance level 5%. The procedure: (§1) Body lengths (nose-anus and nose-tail) and bone length (tibial, femoral length) was assessed post-mortem using peripheral quantitative computed tomography (PQCT, Stratec) analysis. Bone density was also assessed via pQCT.
Tibias were stored in 10% neutral buffered formalin. Tissue was stripped from the bone and bone length, area and density (cortical and trabecular) was assessed using pQCT (Stratec). […] Tibial length was highly correlated with total body (nose-anus) length (FIG. 5).

A further data set concerns plasma glucose. Description: Fasting plasma glucose. It counts as in vivo, Wistar rats. The settings on record: compared to controls. The procedure:
(§2) Blood samples were collected following overnight fast. Samples were collected from the tail vein and at termination following decapitation under halothane anaesthetic. Blood samples were collected into heparinised tubes and centrifuged for harvesting of plasma. Blood samples were then analysed for insulin, glucose, FFAs, leptin, IGF-I, glycerol, triglycerides, cholesterol, corticosterone, markers of hepatic function (ALT, AST, ALP), and for markers of protein synthesis.
(§3) Plasma FFAs, triglycerides and glycerol were measured by diagnostic kit (Boehringer-Mannheim #1383175 and Sigma #337 respectively). Plasma leptin, insulin were measured using commercially available kits (inco, St Charles, Mo., US). Plasma IGF-I was measured by RIA as described previously (Vickers et al., 2000). Plasma glucose concentrations were measured using a colorimetric plate assay. All other plasma analytes (liver enzymes, electrolytes, etc.) were measured by a BM/Hitachi 737 analyser by Agriquality Laboratory Services (Auckland, New Zealand).

Data set [5] in a line: Blood hematocrit (marker of plasma volume / fluid retention). In kind it is in vivo, Wistar rats. The following applies: compared to saline; AD and SGA groups. From the text: A well-characterised effect of GH treatment is increased plasma volume (Johannsson et al, 2002). Decrease in blood hematocrit is a reliable marker of increase in plasma volume associated with fluid retentive effects of GH therapy.

Another data set has as its system plasma triglycerides. As to the kind of experiment: Plasma triglycerides. It counts as in vivo, Wistar rats. The following applies: compared to saline controls. The procedure:
as §2, §3

Data set [6] can be described thus: Tissue studies: organ and fat depot weights at termination. It counts as in vivo, Wistar rats. How it is done: At termination animals were sacrificed by decapitation under halothane anaesthesia. Tissues (heart, liver, muscle and adipose (subcutaneous and visceral)) were collected, weighed and snap frozen in liquid nitrogen for subsequent analysis. An aliquot of liver tissue was also frozen at −20° C. for examining the growth hormone receptor using ligand-binding analysis.

A short description of data set [7]: Body lengths (nose-anus) post-mortem and BMI. It counts as in vivo, Wistar rats. The procedure: as §1
A BMI was calculated using: body weight/nose-anus length (cm)2. […] Due to the lack of lipolysis in the GH and acipimox treated animals compared to GH treated, alterations in BMI probably reflect an enhancement of liner growth above that of GH alone.

Another data set concerns plasma leptin. As to the kind of experiment: Plasma leptin. In kind it is in vivo, Wistar rats. The following applies: compared to saline animals and animals that received GH and fibrate. The procedure: as §2, §3
The test system of a further data set is plasma IGF-I. As to the kind of experiment: Plasma IGF-I by RIA. It counts as in vivo, Wistar rats. The following applies: compared to saline controls; AD and SGA animals; at time of sacrifice. How it is done: as §2, §3
A short description of data set [8]: Systolic blood pressure by tail cuff plethysmography. It counts as in vivo, Wistar rats. The following applies: SGA offspring. How it is done: Systolic and diastolic blood pressure and heart rate were recorded by tail cuff plethysmography according to the manufacturer's instructions (Blood pressure analyser IITC, Life Science, Woodland Hills, Calif., USA). Rats were restrained in a clear plastic tube in a heated room (25-28° C.). After 10-15 minutes acclimatisation the cuff was placed on the tail and inflated to 240 mmHg. Pulses were recorded during deflation at a rate of 3 mmHg/sec and reappearance of a pulse was used to determine systolic blood pressure. A minimum of 3 clear systolic blood pressure recordings were taken per animal. Previous observations indicate that the coefficient of variation for repeated measurements is <5%.

Read-outs that look alike come from different tables or passages of the source.

For the molecule `CCCCCCCN(CCc1ccc(SC(C)(C)C(=O)O)cc1)C(=O)Nc1ccc(F)cc1F` [GW9578], in data set [1], the insulin resistance entry was “reduce insulin resistance”.

`Cc1cnc(C(=O)O)c[n+]1[O-]` [acipimox, 5-methylpyrazinecarboxylic acid 4-oxide]: in [2], the insulin resistance result is on record as “reduce insulin resistance” and the “plasma FFA levels” value is on record as “lower plasma FFA levels”. The “GH induced insulin resistance” value in data set [3] is “partially prevent”.

`CC(C)(Oc1ccc(C2CC2(Cl)Cl)cc1)C(=O)O` (stereo not shown) [ciprofibrate]: the insulin resistance result in data set [1] was “reduce insulin resistance”.

For the molecule “hGH: human growth hormone, lactogenic and somatogenic in the rat”, the “binding to GH receptors (somatogenic binding sites)” value in the data set with GH receptors is “binding to both prolactin receptors and GH receptors”. Further, the “binding to prolactin receptor (lactogenic binding sites)” value with rat prolactin receptor was “binding to both prolactin receptors and GH receptors”.

B1: GH: Recombinant bovine growth hormone, a pure somatogen in the rat, given subcutaneously at 5 mg/kg/day (protein, UniProt P01246 27-217, looked up)
Somatotropin: AFPAMSLSGLFANAVLRAQHLHQLAADTFKEFERTYIPEGQRYSIQNTQVAFCFSETIPAPTGKNEAQQKSDLELLRISLLLIQSWLGPLQFLSRVFTNSLVFGTSDRVYEKLKDLEEGILALMRELEDGTPRAGQILKQTYDKFDTNMRSDDALLKNYGLLSCFRKDLHKTETYLRVMKCRRFGEASCAF
In the case of B1, the Total bone density result in data set [4] (pQCT) is “trend (p=0.056) towards to drop”. In [4] (pQCT, AD and SGA animals), the trabecular bone mass result is reported as “significantly reduced”. Besides, the Tibial length entry in [4] (pQCT, effect of treatment, AD and SGA) is “significantly increased”. Also, the “Fisher's PLSD for TRABECULAR, Mean Diff.” value in data set [4] (versus GH/ACIP) is −4.381; in data set [4] (versus GH/FIB) it was −10.613; in data set [4] (versus SALINE), −14.137. The Fasting plasma glucose entry in the data set on plasma glucose is recorded as “not significantly altered”. For the same molecule, in data set [5], the blood plasma hematocrit entry is recorded as “significantly reduced”. The Plasma triglycerides result in the data set with plasma triglycerides is on record as “no significant effect”. In addition, in [6] (compared to saline controls), the Relative kidney weight result is recorded as “reduced”. Further, in [6] (compared to saline controls), the retroperitoneal fat mass entry is reported as “significantly reduced”. The Relative liver weight entry in [6] (relative to body weight, AD and SGA animals) is “no effect”. Besides, the BMI result in data set [7] (compared to saline) was “not significantly different”. In data set [7] (post-mortem, effect of treatment), the Nose anus lengths result is given as “significantly increased”. For the same molecule, the plasma leptin result in the data set on plasma leptin is given as “elevated”. In addition, the “Plasma IGF-I” value with plasma IGF-I was “significantly increased”. Moreover, the systolic blood pressure entry in data set [8] was “significantly reduced and normalised”. Besides, in the data set with rat prolactin receptor, the “binding to prolactin receptor (lactogenic binding sites)” value is “not a ligand”.
